In patent publication US20130174289A1, “Na+/Mg2+ Exchanger” (FBN - Leibnitz-Institut fur Nutztierbiologie, published 2013) one finds occurrence data, which are given here for 21 molecules.

Residue numbers refer to the chain shown, from its start.

The labels stand for the following.
B1: ATP synthase subunit a (Homo sapiens) (other)
chain: MNENLFASFIAPTILGLPAAVLIILFPPLLIPTSKYLINNRLITTQQWLIKLTSKQMMTMHNTKGRTWSLMLVSLIIFIATTNLLGLLPHSFTPTTQLSMNLAMAIPLWAGTVIMGFRSKIKNALAHFLPQGTPTPLIPMLVIIETISLLIQPMALAVRLTANITAGHLLMHLIGSATLAMSTINLPSTLIIFTILILLTILEIAVALIQAYVFTLLVSLYLHDNT
B2: Translocon-associated protein subunit gamma (other)
chain: MAPKGSSKQQSEEDLLLQDFSRNLSAKSSALFFGNAFIVSAIPIWLYWRIWHMDLIQSAVLYSVMTLVSTYLVAFAYKNVKFVLKHKVAQKREDAVSKEVTRKLSEADNRKMSRKEKDERILWKKNEVADYEATTFSIFYNNTLFLVVVIVASFFILKNFNPTVNYILSISASSGLIALLSTGSK
B3: ATP synthase subunit a (Cricetulus griseus) (other)
chain: MNENLFSSFITPTLMGLPIIILIIMFPPVIMTSSKRLVNNRFHTFQQWLIKLITKQMMAIHSPKGRTWSLMLASLIIFIGSTNLLGLLPHTFTPTTQLSMNLGMAIPPWAGAVILGFRHKMKDSLAHFLPQGTPIPLIPMLVIIETISLFIQPMALAVRLTANITAGHLLMHLIGGATLVLTSISLPTAMITFIILIMLTILEFAVALIQAYVFTLLVSLYLHDNT
B4: UPF0414 transmembrane protein C20orf30 (other)
chain: MMPSRTNLATGIPSSKVKYSRLSSTDDGYIDLQFKKTPPKIPYKAIALATVLFLIGAFLIIIGSLLLSGYISKGGADRAVPVLIIGILVFLPGFYHLRIAYYASKGYRGYSYDDIPDFDD
B5: Transmembrane protein 147 (other)
chain: MTLFHFGNCFALAYFPYFITYKCSGLSEYNAFWKCVQAGVTYLFVQLCKMLFLATFFPTWEGGIYDFIGEFMKASVDVADLIGLNLVMSRNAGKGEYKIMVAALGWATAELIMSRCIPLWVGARGIEFDWKYIQMSIDSNISLVHYIVASAQVWMITRYDLYHTFRPAVLLLMFLSVYKAFVMETFVHLCSLGSWAALLARAVVTGLLALSTLALYVAVVNVHS
B6: Kunitz-type protease inhibitor 2 (other)
chain: ADRERSIHDFCLVSKVVGRCRASMPRWWYNVTDGSCQLFVYGGCDGNSNNYLTKEECLKKCATVTENATGDLATSRNAADSSVPSAPRRQDSEDHSSDMFNYEEYCTANAVTGPCRASFPRWYFDVERNSCNNFIYGGCRGNKNSYRSEEACMLRCFRQQENPPLPLGSKVVVLAGLFVMVLILFLGASMVYLIRVARRNQERALRTVWSSGDDKEQLVKNTYVL
B7: Probable ergosterol biosynthetic protein 28 (other)
chain: MSRFLNVLRSWLVMVSIIAMGNTLQSFRDHTFLYEKLYTGKPNLVNGLQARTFGIWTLLSSVIRCLCAIDIHNKTLYHITLWTFLLALGHFLSELFVYGTAAPTIGVLAPLMVASFSILGMLVGLRYLEVEPVSRQKKRN
B8: Protein disulfide-isomerase A6 (enzyme)
chain: LYSSSDDVIELTPSNFNREVIQSDSLWLVEFYAPWCGHCQRLTPEWKKAATALKDVVKVGAVDADKHHSLGGQYGVQGFPTIKIFGSNKNRPEDYQGGRTGEAIVDAALSALRQLVKDRLGGRSGGYSSGKQGRSDSSSKKDVIELTDDSFDKNVLDSEDVWMVEFYAPWCGHCKNLEPEWAAAASEVKEQTKGKVKLAAVDATVNQVLASRYGIRGFPTIKIFQKGESPVDYDGGRTRSDIVSRALDLFSDNAPPPELLEIINEDIAKRTCEEHQLCVVAVLPHILDTGAAGRNSYLEVLLKLADKYKKKMWGWLWTEAGAQSELETALGIGGFGYPAMAAINARKMKFALLKGSFSEQGINEFLRELSFGRGSTAPVGGGAFPTIVEREPWDGRDGELPVEDDIDLSDVELDDLGKDEL
B9: Signal peptidase complex subunit 1 (other)
chain: MARGGDTGCTGPSETSASGAVAIAFPGLEGPPADAQYQTLALTVPKSWSPSPRSLPPALSCPPPQPAMLEHLSSLPTQMDYKGQKLAEQMFQGIILFSAIVGFIYGYVAEQFGWTVYIVMAGFAFSCLLTLPPWPIYRRHPLKWLPVQESSTDDKKPGERKIKRHAKNN
B10: Uncharacterized protein C4orf3 (other)
chain: MEVDAPGVDGRDGLRERRGFSEGGRQNFDVRPQSGANGLPKHSYWLDLWLFILFDVVVFLFVYFLP
B11: 3-beta-hydroxysteroid-Delta(8), Delta(7)-isomerase (Rattus norvegicus) (enzyme)
chain: MTTNMLPLHPYWPRHLRLDNFVPNDLPTWHILVGLFSFSGVLIVITWLLSSRVSVVPLGTGRRLALCWFAVCTFIHLVIEGWFSFYHEILLEDQAFLSQLWKEYSKGDSRYILSDGFIVCMESVTACLWGPLSLWVVIAFLRHQPFRFVLQLVVSVGQIYGDVLYFLTELRDGFQHGELGHPLYFWFYFVIMNAIWLVIPGILVFDAIKHLTNAQSMLDNKVMKIKSKHN
B12: Uncharacterized protein C10orf35 (other)
chain: MVRILANGEIVQDDDPRVRTTTQPPRGSIPRQSFFNRGHGAPPGGPGPRQQQAGARLGAAQSPFNDLNRQLVNMGFPQWHLGNHAVEPVTSILLLFLLMMLGVRGLLLVGLVYLVSHLSQR
B13: B-cell receptor-associated protein 31 (other)
chain: MSLQWTAVATFLYAEVFVVLLLCIPFISPKRWQKIFKSRLVELLVSYGNTFFVVLIVILVLLVIDAVREIRKYDDVTEKVNLQNNPGAMEHFHMKLFRAQRNLYIAGFSLLLSFLLRRLVTLISQQATLLASNEAFKKQAESASEAAKKYMEENDQLKKGAAVDGGKLDVGNAEVKLEEENRSLKADLQKLKDELASTKQKLEKAENQVLAMRKQSEGLTKEYDRLLEEHAKLQAAVDGPMDKKEE
B14: ATP synthase subunit a (Tachyglossus aculeatus aculeatus) (other)
chain: MNENLFASFITPTILGISILPLIMIFPCLLFSAPNRWMPNRLVALQLWLVRMVTKQMMSMHNKQGRMWTLMLITLIMFIASTNLLGLLPYTFTPTTQLSMNMGMAVPLWLGTVLMGFRNKPKSSLAHFLPQGTPTPLIPMLIIIETISLFIQPVALAVRLTANITAGHLLIHLIGSATLALSSISLTVSTITFTILFLLTILEIAVALIQAYVFTLLVSLYLHDNT
B15: Peptidyl-prolyl cis-trans isomerase B (enzyme)
chain: not shown
B16: Immediate early response 3-interacting protein 1 (other)
chain: MAFTLYSLLQAALLCVNAIAVLHEERFLKNIGWGTDQGIGGFGEEPGIKSQLMNLIRSVRTVMRVPLIIVNSIAIVLLLLFG
B17: UPF0480 protein C15orf24 homolog (other)
chain: SEVPGAAAEGSGGSGVGIGDRFKIEGRAVVPGVKPQDWISAARVLVDGEEHVGFLKTDGSFVVHDIPSGSYVVEVVSPAYRFDPVRVDITSKGKMRARYVNHIKTSEVVRLPYPLQMKSSGPPSYFIKRESWGWTDFLMNPMVMMMVLPLLIFVLLPKVVNTSDPDMRREMEQSMNMLNSNHELPDVSEFMTRLFSSKSSGKSSSGSSKTGKSGAGKRR
B18: UPF0480 protein C15orf24 (other)
chain: B17 chain with H102Y
B19: Protein YIPF6 (other)
chain: MAEAEESPGDPGTASPRPLFAGLSDISISQDIPVEGEITIPMRSRIREFDSSTLNESVRNTIMRDLKAVGKKFMHVLYPRKSNTLLRDWDLWGPLILCVTLALMLQRDSADSEKDGGPQFAEVFVIVWFGAVTITLNSKLLGGNISFFQSLCVLGYCILPLTVAMLICRLVLLADPGPVNFMVRLFVVIVMFAWSIVASTAFLADSQPPNRRALAVYPVFLFYFVISWMILTFTPQ
B20: ATP synthase subunit a (Pan troglodytes) (other)
chain: MNENLFASFAAPTILGLPAAVLIILFPPLLVPTSKHLINNRLITTQQWLIQLTSKQMMTMHSTKGRTWSLMLVSLIIFITTTNLLGLLPHSFTPTTQLSMNLAMAIPLWAGAVVMGFRFKTKNALAHFLPQGTPTPLIPMLVIIETISLLIQPMALAVRLTANITAGHLLMHLIGSATLALSTINLPYALIIFTILILLTILEIAVALIQAYVFTLLVSLYLHDNT
B21: Transmembrane protein 14A (other)
chain: MDLIGFGYAALVTFGSIFGYKRRGGVPSLIAGLFVGCLAGYGAYRVSNDKRDVKVSLFTAFFLATIMGVRFKRSKKIMPAGLVAGLSLMMILRLVLLLL

The target of this experiment is SLC41A1 (human). Put plainly: split-ubiquitin method screen (DUALmembrane SU-YTH) for SLC41A1 complex-forming partners.
Sequence of SLC41A1 (human) (chain, as listed by the source limits assumed): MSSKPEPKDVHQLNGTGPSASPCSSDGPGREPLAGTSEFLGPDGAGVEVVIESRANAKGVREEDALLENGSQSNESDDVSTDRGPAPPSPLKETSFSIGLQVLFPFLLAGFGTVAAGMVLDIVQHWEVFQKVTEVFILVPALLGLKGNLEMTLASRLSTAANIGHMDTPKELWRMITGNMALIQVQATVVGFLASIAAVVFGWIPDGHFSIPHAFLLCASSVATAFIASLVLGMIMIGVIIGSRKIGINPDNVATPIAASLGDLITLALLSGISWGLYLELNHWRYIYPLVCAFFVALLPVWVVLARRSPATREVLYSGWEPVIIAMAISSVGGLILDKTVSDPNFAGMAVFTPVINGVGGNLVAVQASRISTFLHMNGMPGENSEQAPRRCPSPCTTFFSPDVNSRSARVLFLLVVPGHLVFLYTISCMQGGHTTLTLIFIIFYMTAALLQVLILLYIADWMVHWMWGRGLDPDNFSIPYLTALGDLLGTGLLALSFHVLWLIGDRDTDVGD
For the molecule B1, the occurrence was 1 clones.

With B2, the occurrence was 4 clones.

With B3, the occurrence is 1 clones.

The molecule B4 came in with an occurrence of 3 clones.

Molecule B5 yielded an occurrence of 2 clones.

B6: the occurrence was found to be 2 clones.

The molecule B7 returned an occurrence of 2 clones.

For the molecule B8, the occurrence was 11 clones.

For B9, the occurrence was 2 clones.

The molecule B10 registered an occurrence of 2 clones.

Regarding B11, the occurrence was 1 clones.

On to B12, for which the occurrence was 2 clones.

As for B13, the occurrence was 10 clones.

Consider B14, for which the occurrence worked out at 1 clones.

Molecule B15 registered an occurrence of 5 clones.

On to B16, for which the occurrence came to 3 clones.

Consider B17, for which the occurrence amounted to 1 clones.

As for B18, the occurrence turned out to be 4 clones.

B19 showed an occurrence of 2 clones.

Take B20: the occurrence came to 1 clones.

With B21, the occurrence was 2 clones.
